Measurements as given in patent US20240277804A1, “TRIPLE COMBINATION THERAPY” (Immutep S.A.S., priority 2021, published 2024).

Tests used:
[1] = Safety of s.c. IMP321 in cancer patients; format: in vivo, human
Method: (§1) Doses of 6-30 mg per subcutaneous (s.c.) injection of IMP321 have been shown, thus far, to be safe and provide an acceptable systemic exposure based on the results of pharmacokinetics data obtained in cancer patients.

[2] = Pharmacokinetics of IMP321 after s.c. injection in cancer patients; format: in vivo, human; details: for at least 24 hours after s.c. injection; patients injected with IMP321 doses of more than 6 mg
Method: as §1

B1: IMP321: recombinant soluble human LAG-3Ig fusion protein, 160-kDa dimer: extracellular domain of hLAG-3 fused to human IgG1 Fc; APC activator (protein)
chain: LQPGAEVPVVWAQEGAPAQLPCSPTIPLQDLSLLRRAGVTWQHQPDSGPPAAAPGHPLAPGPHPAAPSSWGPRPRRYTVLSVGPGGLRSGRLPLQPRVQLDERGRQRGDFSLWLRPARRADAGEYRAAVHLRDRALSCRLRLRLGQASMTASPPGSLRASDWVILNCSFSRPDRPASVHWFRNRGQGRVPVRESPHHHLAESFLFLPQVSPMDSGPWGCILTYRDGFNVSIMYNLTVLGLEPPTPLTVYAGAGSRVGLPCRLPAGVGTRSFLTAKWTPPGGGPDLLVTGDNGDFTLRLEDVSQAQAGTYTCHIHLQEQQLNATVTLAIITVTPKSFGSPGSLGKLLCEVTPVSGQERFVWSSLDTPSQRSFSGPWLEAQEAQLLSQPWQCQLYQGERLLGAAVYFTELSSPG
modifications: left off: small tags and cut ends; a dimerising Fc or GST
In the case of B1, the “safety / acceptable systemic exposure” value ([1]; doses of 6-30 mg per s.c. injection) is reported as “safe”, the dose limiting toxicity ([1]; to date) is reported as “No dose limiting toxicity has been observed” and the “blood concentration of IMP321” value [2] is reported as over 1 ng/mL.
